According to patent US20110183358A1 (published 2011):
Square brackets hold non-standard residues; d marks the D form. Ends that are not written are not given here. * marks the point of attachment. Phe(4-Cl) = N[C@@H](Cc1ccc(Cl)cc1)C(=O)O; 2Nal = N[C@@H](Cc1ccc2ccccc2c1)C(=O)O; d2Nal = N[C@H](Cc1ccc2ccccc2c1)C(=O)O; Fmoc = O=C(OCC1c2ccccc2-c2ccccc21)*; 2Thi = N[C@@H](Cc1cccs1)C(=O)O; Cha = N[C@@H](CC1CCCCC1)C(=O)O; d2Thi = N[C@H](Cc1cccs1)C(=O)O; dCha = N[C@H](CC1CCCCC1)C(=O)O

Experiments:
[1] = target: glutathione-S-transferase-BIR2 fusion protein (GST-BIR2) (human) (UniProt P98170); assay: fluorescence polarization; 400 nM rhodamine-SMAC, GST-BIR2 0.05 to 20 µM
[2] = target: GST-BIR3RING (human) (UniProt P98170); assay: fluorescence polarization; 400 nM rhodamine-SMAC, GST-BIR3RING 0.02 to 6 µM
[3] = target: T1, GST-XIAP (human, UniProt P98170 1-497); assay: cell-based or functional assay
[4] = target: T1, GST-XIAP; assay: cell-based or functional assay; remark: listed apart in the source
[5] = target: full length XIAP (human, UniProt P98170 1-497); assay: cell-based or functional assay
Sequence of full length XIAP (P98170 whole entry): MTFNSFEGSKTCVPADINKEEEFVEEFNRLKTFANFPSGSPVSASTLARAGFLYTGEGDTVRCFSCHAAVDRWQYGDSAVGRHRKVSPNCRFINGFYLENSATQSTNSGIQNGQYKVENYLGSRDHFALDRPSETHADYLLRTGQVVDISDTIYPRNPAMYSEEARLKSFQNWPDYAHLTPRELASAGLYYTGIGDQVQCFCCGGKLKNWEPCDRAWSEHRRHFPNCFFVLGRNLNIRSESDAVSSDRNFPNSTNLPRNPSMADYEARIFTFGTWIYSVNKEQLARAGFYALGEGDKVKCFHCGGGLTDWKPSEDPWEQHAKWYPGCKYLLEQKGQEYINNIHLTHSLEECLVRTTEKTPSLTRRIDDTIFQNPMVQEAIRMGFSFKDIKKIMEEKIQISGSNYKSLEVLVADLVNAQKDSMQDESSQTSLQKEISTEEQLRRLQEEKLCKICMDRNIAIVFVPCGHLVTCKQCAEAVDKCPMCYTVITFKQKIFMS

T1 sequence (P98170 whole entry): as above
Sequence of GST-BIR3RING (human) (P98170 243-497): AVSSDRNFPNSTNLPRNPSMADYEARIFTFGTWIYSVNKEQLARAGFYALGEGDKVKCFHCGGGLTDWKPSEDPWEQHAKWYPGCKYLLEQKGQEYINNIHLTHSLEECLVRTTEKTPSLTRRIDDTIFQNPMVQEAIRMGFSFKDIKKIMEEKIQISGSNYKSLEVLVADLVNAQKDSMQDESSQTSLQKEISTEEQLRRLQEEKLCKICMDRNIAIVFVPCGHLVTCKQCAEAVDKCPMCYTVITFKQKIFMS
Sequence of glutathione-S-transferase-BIR2 fusion protein (GST-BIR2) (human) (P98170 124-240): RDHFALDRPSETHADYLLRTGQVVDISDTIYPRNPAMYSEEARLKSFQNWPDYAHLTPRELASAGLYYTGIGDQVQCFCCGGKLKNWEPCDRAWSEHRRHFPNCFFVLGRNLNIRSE

Q: For “rhodamine labeled SMAC (rhodamine-SMAC) (peptide)”, which Kd [1] is on record?
A: 20 µM

Q: What about the Kd [2] of the same molecule?
A: 0.28 µM

Q: With A[dW]W[2Thi] [1332/1352-47] as the molecule, how does the “ratio of Vmax for hydrolysis of Ac-DEVD-AFC in the presence and absence of the species” value (“ratio of Vmax” below) [3] read?
A: 2.4 ratio

Q: With [2Nal][dCha]W[dW] [1352-66] as the molecule, how does the “ratio of Vmax” value [3] read?
A: 2.4 ratio

Q: Which “Vmax(mix + casp3 + XIAP)/Vmax(casp3 + XIAP)” value [4] does the source give for H-AVPIAQK-NH2 [SMAC peptide (H-Ala-Val-Pro-Ile-Ala-Gln-Lys-NH2)] here?
A: 3.8 ratio

Q: With A[dW]W[2Thi] [1352-6] as the molecule, how does the “ratio of Vmax” value [3] read?
A: 2.4 ratio

Q: Which “ratio of Vmax” value [3] does the source give for [Cha][d2Nal]W[2Thi] [1332-41] here?
A: 2.4 ratio

Q: How did the “ratio of Vmax” value [3] turn out when [2Nal][d2Thi][dF][dW] [1352-72] was run?
A: 2.4 ratio

Q: For AWW[2Thi] (not fully specified) [1332/1352-1], which “ratio of Vmax” value [3] is on record?
A: 2.4 ratio

Q: Which results are given for [2Thi][2Nal][Phe(4-Cl)]K(Fmoc) [TPI 792-33]?
A: EC50 (amount of compound necessary to restore caspase-3 activity to 50% of Vmax) [5]: 24 µM; Relative Potency (against SMAC AVPI tetrapeptide) [5]: 5.2 fold

Q: With [2Thi][2Nal][dK](Fmoc)K(Fmoc) [TPI 792-35] as the molecule, how does the “EC50 (amount of compound necessary to restore caspase-3 activity to 50% of Vmax)” value [5] read?
A: 51 µM

Q: What about the “Relative Potency (against SMAC AVPI tetrapeptide)” value [5] of the same molecule?
A: 2.5 fold
